Reference: the supplement of paper PMC9732359
± gives the uncertainty stated by the source.

Experiment: protein stability index of a GFP-peptide fusion (yeast GPS) (PSI 1-4); higher = more stable; sorted into four equal gates, so the index is relative within each strain
Summary of the method: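 Peptides tiling yeast proteins in 17-residue segments were fused downstream of GFP, with Cherry expressed from the same plasmid. As a pooled library in yeast, mid-log cultures grown in leucine-free medium were sorted into four equal gates by GFP/Cherry fluorescence ratio. Gate plasmids were PCR-amplified and Illumina-sequenced, and barcodes linked reads to strains. Each peptide received a protein stability index equal to the sum of each gate's read frequency times its gate number.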

| Sequence | protein stability index (doa10∆) | protein stability index (pdr5∆) | protein stability index (ubr1∆) | protein stability index (san1∆) |
| --- | --- | --- | --- | --- |
| TDNMSGRGLWNPSYPGM [YJL039C/NUP192] | 3.14 ± 0.26 | 3.11 ± 0.18 | 2.84 ± 0.26 | – |
| TATIINNESSDDMDIDE [PCI8] | 3.1 ± 0.097 | 3.17 ± 0.07 | 3.31 ± 0.056 | 3.02 ± 0.095 |
| NPPSYQSSEDVITIKSR [RPB7] | 2.78 ± 0.17 | – | 2.25 ± 0.28 | 2.6 ± 0.12 |
| EDTNLAAIHAKRVTIQK [HHT1] | 2.88 ± 0.078 | 3.04 ± 0.099 | 2.92 ± 0.056 | 2.97 ± 0.059 |
| WLNGKMDSKGKITIGIQ [RGR1] | 3.69 ± 0.12 | 3.47 ± 0.21 | – | – |
| TLNNIFRFDSIQRETLL [GRR1] | 2.88 ± 0.075 | 2.59 ± 0.081 | 3.1 ± 0.04 | 2.75 ± 0.052 |
| TTKRLWSEITESMSYLP [MCD1] | 3.01 ± 0.12 | 2.91 ± 0.095 | 2.73 ± 0.069 | 2.99 ± 0.11 |
| ESDAPPKSTAPIFSFGK [YOR098C/NUP1] | 2.72 ± 0.044 | 2.58 ± 0.044 | 2.76 ± 0.038 | 2.71 ± 0.042 |
| KRKLLEHRRYDDQLKQR [RPT4] | 2.04 ± 0.27 | 2.1 ± 0.22 | 1.92 ± 0.17 | 1.42 ± 0.23 |
| KEHDEIEEQGDALQDVE [DPB4] | 3.17 ± 0.092 | 3.39 ± 0.12 | 3.36 ± 0.067 | 3.36 ± 0.06 |
| DVVMKATEPQMVLFNIY [PRP8] | 2.03 ± 0.046 | 1.76 ± 0.049 | 1.77 ± 0.043 | 1.58 ± 0.078 |
| IIKERALLSKVKWVHMI [SNF2] | 1.37 ± 0.059 | 1.23 ± 0.061 | 1.18 ± 0.042 | 1.34 ± 0.088 |
| TEEPDLAIADVETKLET [DSN1] | 3.2 ± 0.12 | 3.35 ± 0.11 | 3.5 ± 0.14 | 2.48 ± 0.097 |
| AKVVVTTSRFSKQVTDY [FAS2] | 3.08 ± 0.084 | 2.71 ± 0.082 | 3.15 ± 0.058 | 3.12 ± 0.055 |
| GLQGSGKTTSCTKLAVY [SRP54] | 2.47 ± 0.12 | 2.91 ± 0.077 | 2.66 ± 0.089 | 1.97 ± 0.27 |
| DRSLADDYDYVMYGTAY [RPB8] | 2.56 ± 0.059 | 2.98 ± 0.064 | 2.73 ± 0.074 | 3.02 ± 0.063 |
| TAPSSERRVLLSAPLSK [RPL26B] | 1.86 ± 0.041 | 2.4 ± 0.044 | 2.08 ± 0.044 | 2.66 ± 0.062 |
| QGISGSQQNIVPNSSDQ [SNF2] | 2.92 ± 0.05 | 3.11 ± 0.06 | 2.95 ± 0.053 | 3.16 ± 0.041 |
| VHPGANYLLKRNEDARR [RPO31] | 3.21 ± 0.067 | 3.14 ± 0.077 | 3.35 ± 0.038 | 2.93 ± 0.077 |
| ADLDSLIIRNDSLSGAV [RPT3] | 3.12 ± 0.077 | 3.06 ± 0.058 | 3 ± 0.049 | 2.82 ± 0.049 |

| Sequence | protein stability index (doa10∆) | protein stability index (pdr5∆) | protein stability index (ubr1∆) | protein stability index (san1∆) |
| --- | --- | --- | --- | --- |
| KIKLLTQATSEDGTSAS [RPC19] | 2.61 ± 0.065 | 2.85 ± 0.079 | 3.11 ± 0.078 | 2.89 ± 0.062 |
| KNIKIIMATNRLDILDP [RPT6] | 2.91 ± 0.14 | 2.55 ± 0.079 | 3.3 ± 0.058 | 2.41 ± 0.068 |
| GNITRGLAVGLALINYG [RPN2] | 1.43 ± 0.17 | 1.22 ± 0.11 | 1.51 ± 0.086 | 1.7 ± 0.15 |
| KEKVSNGGVGVDVELIT [FAS2] | 2.96 ± 0.046 | 3.13 ± 0.062 | 3.05 ± 0.05 | 3.11 ± 0.056 |
| LIECLLSKVAALSGNEG [RPB2] | 1.47 ± 0.079 | 1.74 ± 0.098 | 1.27 ± 0.08 | 1.89 ± 0.11 |
| LVQEQVREFQRRLAFLG [BRR2] | 2.07 ± 0.12 | 1.16 ± 0.14 | 1.17 ± 0.087 | 1.04 ± 0.22 |
| ALGIKVTNPKGRLALEA [RPL32] | – | 3.37 ± 0.18 | 3.36 ± 0.19 | 2.87 ± 0.23 |
| MIFWNDICQIDTNAPVA [SRB8] | 2.4 ± 0.063 | 1.8 ± 0.052 | 2.02 ± 0.051 | 2.12 ± 0.093 |
| TQTEELKFMAASEVATH [PRP8] | 2.38 ± 0.084 | 2.48 ± 0.08 | 2.66 ± 0.066 | 2.35 ± 0.081 |
| LIDSLENHLLVMKQVET [PRP28] | 2.49 ± 0.11 | 2.19 ± 0.073 | 2.06 ± 0.063 | 1.69 ± 0.19 |
| QLLDTSNQRFKDLQWLE [SIN4] | 3.02 ± 0.066 | 2.96 ± 0.076 | 2.91 ± 0.043 | 2.88 ± 0.06 |
| TGLHFGRLSLRSLTAYA [QCR10] | 1.22 ± 0.044 | 1.5 ± 0.059 | 1.65 ± 0.055 | 1.39 ± 0.095 |
| DFSIRKTCAKSVIQLCG [ECM29] | 1.84 ± 0.12 | 1.91 ± 0.13 | – | 2.05 ± 0.22 |
| IDGPKAGVPRQAINLGQ [RPL14A] | 3.58 ± 0.14 | 3.29 ± 0.11 | 3.31 ± 0.1 | 2.69 ± 0.11 |
| LIGAATKFKGGKRQLMK [SEC65] | 1.64 ± 0.1 | 2.03 ± 0.084 | 1.93 ± 0.14 | 2.14 ± 0.11 |
| LKGEIEDYPMSSEIKIY [SIR4] | 1.33 ± 0.15 | – | 1.64 ± 0.2 | 3.25 ± 0.18 |
| RSNTGALMRCSFEETVE [RPO21] | 3 ± 0.074 | 3.02 ± 0.077 | 3.01 ± 0.067 | 3.06 ± 0.061 |
| VRATFRNNLPAKTFGAS [RPL33A] | 2.85 ± 0.097 | 3.05 ± 0.16 | 3.31 ± 0.098 | 3.2 ± 0.11 |
| QFCAFDSSSNTYRSRAQ [SIN4] | 2.82 ± 0.075 | 2.37 ± 0.08 | 2.39 ± 0.057 | 2.81 ± 0.05 |
| TPLFHALAEGHGDAAVL [NAS6] | – | 3.1 ± 0.1 | 2.61 ± 0.12 | 3.07 ± 0.091 |
